T1: human CD73 on cells (human, UniProt P21589 27-549)
T1 sequence: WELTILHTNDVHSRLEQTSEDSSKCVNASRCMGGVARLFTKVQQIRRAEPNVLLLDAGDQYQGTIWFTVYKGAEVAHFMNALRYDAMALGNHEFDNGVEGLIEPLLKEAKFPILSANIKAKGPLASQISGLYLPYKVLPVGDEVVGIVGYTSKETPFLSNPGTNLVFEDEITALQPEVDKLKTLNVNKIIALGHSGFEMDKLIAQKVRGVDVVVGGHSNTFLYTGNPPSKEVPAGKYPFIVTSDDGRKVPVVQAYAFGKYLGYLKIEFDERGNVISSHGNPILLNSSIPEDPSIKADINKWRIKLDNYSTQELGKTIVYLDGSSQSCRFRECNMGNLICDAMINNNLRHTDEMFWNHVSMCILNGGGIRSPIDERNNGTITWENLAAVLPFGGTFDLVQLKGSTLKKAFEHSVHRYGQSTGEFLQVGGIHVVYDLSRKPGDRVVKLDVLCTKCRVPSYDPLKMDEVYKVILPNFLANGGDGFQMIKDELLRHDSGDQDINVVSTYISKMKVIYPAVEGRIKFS

T2: recombinant human CD73 protein (form not stated) (human, UniProt P21589 27-549)
T2 construct: also called huCD73; rCD73
T2 sequence: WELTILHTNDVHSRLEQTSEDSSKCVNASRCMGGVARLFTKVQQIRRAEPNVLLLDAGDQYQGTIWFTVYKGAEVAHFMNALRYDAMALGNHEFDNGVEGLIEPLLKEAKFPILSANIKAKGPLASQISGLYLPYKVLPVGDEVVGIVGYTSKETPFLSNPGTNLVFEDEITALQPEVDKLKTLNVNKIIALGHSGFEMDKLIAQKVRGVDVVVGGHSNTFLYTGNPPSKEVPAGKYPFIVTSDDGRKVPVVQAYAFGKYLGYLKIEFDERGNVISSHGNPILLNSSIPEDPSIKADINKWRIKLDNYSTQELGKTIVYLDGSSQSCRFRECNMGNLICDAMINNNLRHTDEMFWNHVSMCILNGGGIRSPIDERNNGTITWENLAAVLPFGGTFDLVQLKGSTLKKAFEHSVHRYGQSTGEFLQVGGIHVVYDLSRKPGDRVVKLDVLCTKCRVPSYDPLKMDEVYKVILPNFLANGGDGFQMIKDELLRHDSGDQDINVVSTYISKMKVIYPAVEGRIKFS


Legend:
[1] = molecular target: cynomolgus CD73 (form not stated) (cynomolgus); test: Binding, Cyno; assay not described
human CD73 on cells [2] = molecular target: T1, human CD73 on cells; test: cell-based or functional assay
[3] = molecular target: T3, cynomolgus CD73 extracellular domain (ECD) (cynomolgus); test: SPR (Proteon), IgG1-TM
T3 construct: extracellular domain; also called Cynomolgus CD73 ECD; cyno CD73 (SPR Proteon)

cynomolgus CD73 on cells = molecular target: T4, cynomolgus CD73 on cells (cynomolgus); test: flow cytometry on MK-1 cells, IgG1-TM
T4 construct: whole, on cells; also called native CD73 on MK-1 cells (cynomolgus)

human CD73 on cells [4] = molecular target: T1, human CD73 on cells; test: cell-based or functional assay; remark: listed apart in the source
[5] = molecular target: T2, recombinant human CD73 protein (form …); test: assay and target not stated in Table 11 (taken as human CD73)

| Binder | 1/EC50 [1] [nM⁻¹] | Kd (cynomolgus CD73 on cells) [nM] | also measured |
| --- | --- | --- | --- |
| CD730042 antibody (antibody, IgG1, V domains shown, IgG1) VH: GVQLVQSGGGLVQPGGSLRLSCAASGFTFSSYGMHWVRQAPGKGLEWVAVISYDGSIKYYADSVKGRFTISRDDSKNALYLQMNSLRAEDTAVYYCSTLSGSYGYFDYWGRGTLVTVSS VL: QSVLTQPASVSGSPGQSITISCAGTSSDVGGYNYVSWYQQHPGKAPKLMIYEGSKRPSGVSNRFSGSKSGNTASLTISGLQAEDEADYYCSSYTTRSTRVFGGGTKLTVL | 0.0014 | – | – |
| CD730021 antibody (antibody, IgG1, V domains shown, IgG1) VH: QVQLQESGPGLVRPSETLSLTCTVSGGSISSSSYYWAWVRQSPGKGLEWIGNIYYRGSTYYNPSLKSRVTMSVDMSKHQFSLKLSSLNAADTAVYYCASLYSGTYVFDYWGRGTLVTVSS VL: QSVLTQPPSASGTPGQRVTISCSGSRPNIGGNTVNWYQQLPGAAPKLLIYSNSQRPSGVPDRFSGSKYGTSASLAISGLQSDDEADYYCGTWDDSLNGPVFGRGTKLTVL | 0.0012 | – | – |
| CD730008 antibody (antibody, IgG1, V domains shown) VH: EVQLLETGGGLVQPGGSLRLSCAASGFTFSSYAMSWVRQAPGKGLEWVSAISGSGGSTYYADSVKGRFTISRDNSKNTLYLQMNSLRAEDTAVYYCARGNYGNLDHWGKGTLVTVSS VL: QSVLTQPPSVSVSPGQTASITCSGDKVGDKYASWYQQKPGQSPVLVIYQDRKRPSGIPERFSGSNSGNTATLTISGTQPMDEADYYCQAWDSSHWVFGGGTKLTVL | 0.0011 | – | 1/EC50, Enzyme Inhibition, MDA-MB-231 (human CD73 on cells [2]): 0.011 nM⁻¹ |
| CD730002 antibody (antibody, IgG1, V domains shown, IgG1; tested as IgG1-TM; also called clone 2) VH: not shown VL: QSVLTQPPSVSVSPGQTATITCSGDKVGDKYASWYQQKPGQSPVLVIYEDTKRPSRIPERFSGSNSGNTATLTISGTQALDEADYFCQAWDTSFWVFGGGTKLTVL | 0.2 | 0.052 | Kd [3]: 0.015 nM |
| 73combo5 (G10 + GRVE + HPT) (antibody, IgG1, V domains shown, also called clone 10 combo5) VH: EVQLLESGGGLVQPGGSLRLSCAASGFTFSSYAYSWVRQAPGKGLEWVSAISGSWGRTYYADSVKGRFTISRDNSKNTLYLQMNSLRAEDTAVYYCARLGYGRVDEWGRGTLVTVSS VL: QSVLTQPPSASGTPGQRVTISCSGSLSNIGRNDVNWYQQLPGTAPKLLIYLNNQRLGGVPDRFSGSKSGTSASLAISGLQSEDEADYYCATWDDSHPGWTFGGGTKLTVL | – | 0.078 | – |
| CD730002 2C5 (antibody, IgG1, V domains shown, IgG1; also called clone 2C5 antibody) VH: EVQLLESGGGLVQPGGSLRLSCAASGFTFSSYAMSWVRQAPGKGLEWVSAISGSGGSTYYADSVKRRFTISRDNSKNTLYLQMNSLRAEDTAVYYCARDKGYYWYMDVWGQGTMVTVSS VL: QSVLTQPPSVSVSPGQTASITCSGDKVGDKYASWYQQKPGQSPVLVIYEDTKRLSGIPERFSGSNSGNTATLTISGTQAMDEADYYCQAWDTSFWVFGGGTKLTVL | – | 0.063 | Kd [3]: 0.009 nM |
| 73combo1 (C1 + GRVE + HPT) (antibody, IgG1, V domains shown, also called clone 10 combo1) VH: EVQLLESGGGLVQPGGSLRLSCAASGFTFSSYAYSWVRQAPGKGLEWVSAISGSGGSTYYADSVKGRFTISRDNSKNTLYLQMNSLRAEDTAVYYCARLGYGRVDEWGRGTLVTVSS VL: not shown | – | 0.09 | Kd [3]: 0.008 nM |
| CD730047 antibody (antibody, IgG1, V domains shown, IgG1) VH: EVQLVQSGGGVVQPGRSLRLSCAASGFTFSSYGMHWVRQAPGKGLEWVAVISYDGSIKYYADSVKGRFAISRDNAKNTLYLQMNSLRREDTAMYYCASGLTGVAGALGVWGRGTLVTVSS VL: QSVLTQPPSASGAPGQRVTISCSGSSSNIGSNTVNWYQRLPGAAPQLLIYNNDQRPSGIPDRFSGSKSGTSGSLVISGLQSEDEADYYCAAWDDSLSGNVFGTGTKVTVL | 0 | – | – |
| CD730046 antibody (antibody, IgG1, V domains shown, IgG1) VH: QVQLVQSGGGVVQPGRSLRLSCAASGFTFSSYGMHWVRQAPGKGLEWVAVISYDGSIKYYADSVKGRFTISRDNSKNSLFLQMNSLRDDDTATYYCARGHLLRIGDIFYYSLDVWGQGTLVTVSS VL: not shown | 0.01 | – | – |
| 73combo2 (C2 + GRVE + HPT) (antibody, IgG1, V domains shown, also called clone 10 combo2) VH: EVQLLESGGGLVQPGGSLRLSCAASGFTFSSYAYSWVRQAPGKGLEWVSLIWGSWGSTYYADSVKGRFTISRDNSKNTLYLQMNSLRAEDTAVYYCARLGYGRVDEWGRGTLVTVSS VL: QSVLTQPPSASGTPGQRVTISCSGSLSNIGRNPVNWYQQLPGTAPKLLIYLDNLRLGGVPDRFSGSKSGTSASLAISGLQSEDEADYYCATWDDSHPGWTFGGGTKLTVL | – | 0.074 | – |
| CD730011 antibody (antibody, IgG1, V domains shown, IgG1; also called CD7300011) VH: not shown VL: NFMLTQPHSVSESPGKTVTISCTRSSGSIASKYVQWYQQRPGSSPMAVIYKDNQRSSGVPDRFSGSIDSSSNSASLTISGLKPEDEADYYCQSYDASNYYVFGTGTKVTVL | 0.0027 | – | – |
| CD730004 antibody (antibody, IgG1, V domains shown, IgG1) VH: not shown VL: NFMLTQPHSVSESPGQTVTISCTRSSGSIASKYVQWYQKRPGSSPTTVIYEDTQRPSGVPDRFSGSIDISSNSASLTISGLRTEDEADYYCQSYDSTNWVFGGGTKVTVL | 2e-06 | – | – |
| CD730010 antibody (antibody, IgG1, V domains shown, IgG1; tested as IgG1-TM (L234F, L235E, P331S); also called clone 10) VH: not shown VL: LPVLTQPPSVSGTPGQRVTISCSGSLSNIGRNPVNWYKQVPGTAPKLLIYLNNQRPSGVPDRFSGSKSGTSASLAISGLQSEDEADYYCATWDDSLNGWLFGGGTKLTVL | 0.0033 | – | Kd [3]: 1.92 nM; FabZAP internalization, EC50, MDA-MB-231 (human CD73 on cells [4]): 0.158 nM; FabZAP internalization, max toxicity, MDA-MB-231 (human CD73 on cells [4]): 84%; EC50 [5]: 69 nM |
| C2 (antibody, IgG1, V domains shown, also called clone 10 C2) VH: EVQLLESGGGLVQPGGSLRLSCAASGFTFSSYAYSWVRQAPGKGLEWVSLIWGSWGSTYYADSVKGRFTISRDNSKNTLYLQMNSLRAEDTAVYYCARLGYSTIDMWGRGTLVTVSS VL: QSVLTQPPSASGTPGQRVTISCSGSLSNIGRNPVNWYQQLPGTAPKLLIYLDNLRLGGVPDRFSGSKSGTSASLAISGLQSEDEADYYCATWDDSLKGWLFGGGTKLTVL | – | 0.105 | – |
| CD730010 GL10 (antibody, V domains shown) VH: not shown VL: LPVLTQPPSVSGTPGQRVTISCSGSLSNIGRNPVNWYKQVPGTAPKLLIYLNNQRPSGVPDRFSGSKSGTSASLAISGLQSEDEADYYCATWDDSLNGWLFGGGTKLTVL | – | – | EC50 [5]: 205 nM |
| G10 (antibody, IgG1, V domains shown, also called clone 10 G10) VH: EVQLLESGGGLVQPGGSLRLSCAASGFTFSSYAYSWVRQAPGKGLEWVSAISGSWGRTYYADSVKGRFTISRDNSKNTLYLQMNSLRAEDTAVYYCARLGYSTIDLWGRGTLVTVSS VL: QSVLTQPPSASGTPGQRVTISCSGSLSNIGRNDVNWYQQLPGTAPKLLIYLNNQRLGGVPDRFSGSKSGTSASLAISGLQSEDEADYYCATWDDSLKGWLFGGGTKLTVL | – | 0.258 | – |
| C1 (antibody, IgG1, V domains shown, also called clone 10 C1) VH: EVQLLESGGGLVQPGGSLRLSCAASGFTFSSYAYSWVRQAPGKGLEWVSAISGSGGSTYYADSVKGRFTISRDNSKNTLYLQMNSLRAEDTAVYYCARLGYSTIDKWGRGTLVTVSS VL: not shown | – | 0.16 | Kd [3]: 0.012 nM |

— patent US20160194407A1 (AstraZeneca / MedImmune, published 2016)
